Experimental data reported in patent US20150361150A1.

Target: tyrosine-protein kinase KIT on the surface of human KIT+ GIST cell lines (GIST 882, GIST 48) (human) (UniProt P10721)
Experiment: cell-based or functional assay

UniProt P10721, sequence (P10721 26-976): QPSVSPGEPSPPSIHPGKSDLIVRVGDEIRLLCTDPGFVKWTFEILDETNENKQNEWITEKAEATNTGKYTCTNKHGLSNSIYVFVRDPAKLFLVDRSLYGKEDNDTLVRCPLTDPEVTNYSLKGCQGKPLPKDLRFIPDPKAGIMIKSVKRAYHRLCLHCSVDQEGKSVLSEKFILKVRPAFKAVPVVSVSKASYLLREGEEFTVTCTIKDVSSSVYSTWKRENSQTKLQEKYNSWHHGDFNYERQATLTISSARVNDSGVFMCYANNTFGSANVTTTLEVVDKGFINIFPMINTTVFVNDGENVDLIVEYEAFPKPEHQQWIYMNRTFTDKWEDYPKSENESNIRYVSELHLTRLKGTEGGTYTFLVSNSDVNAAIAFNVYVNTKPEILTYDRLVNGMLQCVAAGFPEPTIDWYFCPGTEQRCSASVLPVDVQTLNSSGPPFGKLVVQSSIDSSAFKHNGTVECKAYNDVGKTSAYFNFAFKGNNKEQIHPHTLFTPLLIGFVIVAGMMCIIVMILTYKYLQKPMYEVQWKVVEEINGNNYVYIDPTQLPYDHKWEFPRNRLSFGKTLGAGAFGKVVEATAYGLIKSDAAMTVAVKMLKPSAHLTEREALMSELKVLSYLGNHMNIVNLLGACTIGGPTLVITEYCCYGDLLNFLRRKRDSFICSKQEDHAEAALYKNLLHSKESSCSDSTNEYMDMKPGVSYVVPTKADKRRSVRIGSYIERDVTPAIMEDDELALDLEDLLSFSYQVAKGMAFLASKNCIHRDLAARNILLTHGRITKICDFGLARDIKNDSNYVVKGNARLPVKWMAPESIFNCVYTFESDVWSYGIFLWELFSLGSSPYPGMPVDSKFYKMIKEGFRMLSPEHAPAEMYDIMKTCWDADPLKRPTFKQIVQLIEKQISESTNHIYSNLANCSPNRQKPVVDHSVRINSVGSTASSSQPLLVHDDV

percent of designer T cells divided (CFSE dilution) in co-culture with KIT+ GIST882 cells	Substance
39%	1^st generation anti-KIT chimeric immune receptor (extracellular domain of KIT ligand fused to the CD3 zeta chain), expressed on human designer T cells
47%	2^nd generation anti-KIT chimeric immune receptor (extracellular domain of KIT ligand fused to CD28 and CD3 zeta), expressed on human designer T cells
